From US20240116985A1 (published 2024) come the findings set out here.

Starred links: 1 amine or outer side, 2 acyl side, 3 side chain; linkers in the order of their positions; H or OH if unused. Positions of bridges follow the written chain, without caps; N, C: chain ends. Non-standard residues stand in square brackets, D forms with d. Primed or numbered codes have the meaning given here. B5(10) = 2-amino-2-(pent-4-en-1-yl)hept-6-enoic acid, bis(4-pentenyl)glycine, stitching residue bearing both staples, C=CCCCC(CCCC=C)(N[*:1])C(=O)[*:2]; SeN″ = (S)-5-(((allyloxy)carbonyl)(methyl)amino)-2-amino-2-methylpentanoic acid (stapling residue), C=CCOC(=O)N(C)CCC[C@](C)(N[*:1])C(=O)[*:2]; B5(4) = 2,2-bis(4-pentenyl)glycine = 2-amino-2-(pent-4-en-1-yl)hept-6-enoic acid (stitching residue), C=CCCCC(CCCC=C)(N[*:1])C(=O)[*:2]; B5(5) = 2,2-bis(4-pentenyl)glycine, 2-amino-2-(pent-4-en-1-yl)hept-6-enoic acid (stitching residue), C=CCCCC(CCCC=C)(N[*:1])C(=O)[*:2]; B5(20) = 2-amino-2-(pent-4-en-1-yl)hept-6-enoic acid = bis(4-pentenyl)glycine, stitching residue, C=CCCCC(CCCC=C)(N[*:1])C(=O)[*:2]; B5(21) = 2-amino-2-(pent-4-en-1-yl)hept-6-enoic acid, bis(4-pentenyl)glycine (stitching residue), C=CCCCC(CCCC=C)(N[*:1])C(=O)[*:2]; RdN = (R)-4-(((allyloxy)carbonyl)(methyl)amino)-2-amino-2-methylbutanoic acid, C=CCOC(=O)N(C)CC[C@@](C)(N[*:1])C(=O)[*:2]; SdN = (S)-4-(((allyloxy)carbonyl)(methyl)amino)-2-amino-2-methylbutanoic acid, C=CCOC(=O)N(C)CC[C@](C)(N[*:1])C(=O)[*:2]; Phe(3,5-F2) = N[C@@H](Cc1cc(F)cc(F)c1)C(=O)O; S7 = C[C@@](CCCCCC=[*:3])(N[*:1])C(=O)[*:2]; Phe(3-F) = N[C@@H](Cc1cccc(F)c1)C(=O)O; αAllylPro = C=CC[C@@]1(C(=O)O)CCCN1; Aad = N[C@@H](CCCC(=O)O)C(=O)O; S8 = C=CCCCCCC[C@](C)(N)C(=O)O

Assay [1] concerns the target T1, beta-Catenin (full-length, Uniprot ID P35222) (Homo sapiens (Human), UniProt P35222 1-781).
T1 construct: also called bCat; B-Catenin
T1 sequence: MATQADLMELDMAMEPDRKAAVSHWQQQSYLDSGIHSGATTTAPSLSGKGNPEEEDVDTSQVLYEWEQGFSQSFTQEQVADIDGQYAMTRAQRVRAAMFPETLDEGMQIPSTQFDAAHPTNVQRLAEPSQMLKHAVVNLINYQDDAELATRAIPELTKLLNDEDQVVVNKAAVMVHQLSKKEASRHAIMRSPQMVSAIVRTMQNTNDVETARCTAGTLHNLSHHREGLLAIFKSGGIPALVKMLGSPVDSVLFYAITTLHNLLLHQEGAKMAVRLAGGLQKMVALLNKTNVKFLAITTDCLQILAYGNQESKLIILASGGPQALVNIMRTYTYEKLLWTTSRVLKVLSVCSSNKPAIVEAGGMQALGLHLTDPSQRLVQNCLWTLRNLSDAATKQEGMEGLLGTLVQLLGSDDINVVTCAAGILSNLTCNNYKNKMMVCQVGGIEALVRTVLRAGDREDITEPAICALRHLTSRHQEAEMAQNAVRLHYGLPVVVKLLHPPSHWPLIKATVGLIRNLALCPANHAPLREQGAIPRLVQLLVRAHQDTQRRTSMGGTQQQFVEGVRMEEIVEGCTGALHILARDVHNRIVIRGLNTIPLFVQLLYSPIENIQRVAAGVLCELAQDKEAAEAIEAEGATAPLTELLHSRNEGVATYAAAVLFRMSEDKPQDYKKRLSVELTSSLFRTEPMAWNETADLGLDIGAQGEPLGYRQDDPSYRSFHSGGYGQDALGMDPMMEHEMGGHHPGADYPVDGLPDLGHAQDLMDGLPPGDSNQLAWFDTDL
The experiment in a line: fluorescence polarization competition: peptide titrated against 10 nM full-length beta-catenin + 10 nM 5FAM-labeled TCF4 residues 10-53 probe. As to the method: (§1) The plate was incubated protected from light for 60 minutes at 20° C. prior to read. Reads were performed on a CLARIOstar plate reader (BMG Labtech) in duplicate, and data were fitted to a 1:1 binding model with hill slope using an in-house script. All provided concentrations are final concentrations.
On the technique in general: Fluorescence polarisation rises when a labelled molecule tumbles more slowly, as on binding a larger partner.

The target of assay [2] is T2, full-length beta-Catenin (Uniprot ID P35222) (Homo sapiens (Human), UniProt P35222 2-781).
T2 construct: Used full-length in both the FP and the AlphaScreen assay; also called B-Catenin; bCat
T2 sequence: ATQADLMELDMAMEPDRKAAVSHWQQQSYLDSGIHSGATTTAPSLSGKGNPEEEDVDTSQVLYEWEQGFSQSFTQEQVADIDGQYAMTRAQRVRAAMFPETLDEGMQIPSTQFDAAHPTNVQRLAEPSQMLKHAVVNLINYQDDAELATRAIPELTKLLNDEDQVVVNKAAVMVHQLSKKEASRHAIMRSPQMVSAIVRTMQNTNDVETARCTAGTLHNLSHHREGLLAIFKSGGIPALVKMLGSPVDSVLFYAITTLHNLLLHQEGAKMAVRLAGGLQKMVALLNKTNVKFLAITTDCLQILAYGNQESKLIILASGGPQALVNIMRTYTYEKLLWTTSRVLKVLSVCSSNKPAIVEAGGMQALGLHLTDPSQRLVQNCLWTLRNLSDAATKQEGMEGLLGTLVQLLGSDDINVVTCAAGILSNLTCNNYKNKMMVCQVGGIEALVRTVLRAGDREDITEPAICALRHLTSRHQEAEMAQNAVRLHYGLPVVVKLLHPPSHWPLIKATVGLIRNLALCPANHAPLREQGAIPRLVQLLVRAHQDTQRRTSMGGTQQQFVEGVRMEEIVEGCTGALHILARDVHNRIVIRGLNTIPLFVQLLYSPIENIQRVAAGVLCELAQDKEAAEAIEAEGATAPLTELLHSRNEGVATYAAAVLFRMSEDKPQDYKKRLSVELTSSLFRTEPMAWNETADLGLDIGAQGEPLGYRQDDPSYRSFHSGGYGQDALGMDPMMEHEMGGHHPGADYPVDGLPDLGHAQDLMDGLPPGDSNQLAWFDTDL
The experiment in a line: fluorescence polarization competition; full-length beta-catenin, 5FAM-TCF4(10-53) probe. As to the method: as §1

Assay [3] deals with T2, full-length beta-Catenin (Uniprot ID …). Description: AlphaScreen competition; full-length beta-catenin, biotin-TCF4(10-53) probe. As to the method:
(§2) Equal volume of the titrated peptide was added to the plate and incubated for 15 minutes at 20° C. Then 4 uL of donor and 4 uL acceptor beads at 10 ug/mL were added to the plate, for a 16 uL reaction pool and protected from light for 60 minutes at 20° C. prior to read. Reads were performed on a CLARIOstar plate reader (BMG Labtech) in duplicate, and data were fitted to a 1:1 binding model with hill slope using an in-house script. All provided concentrations are final concentrations.
(In general: Alpha assays give light when donor and acceptor beads are brought close together.)

Assay [4] addresses T3, full-length beta-Catenin (Uniprot ID P35222) (Homo sapiens (Human), UniProt P35222 2-781).
T3 construct: also called B-Catenin; bCat
T3 sequence: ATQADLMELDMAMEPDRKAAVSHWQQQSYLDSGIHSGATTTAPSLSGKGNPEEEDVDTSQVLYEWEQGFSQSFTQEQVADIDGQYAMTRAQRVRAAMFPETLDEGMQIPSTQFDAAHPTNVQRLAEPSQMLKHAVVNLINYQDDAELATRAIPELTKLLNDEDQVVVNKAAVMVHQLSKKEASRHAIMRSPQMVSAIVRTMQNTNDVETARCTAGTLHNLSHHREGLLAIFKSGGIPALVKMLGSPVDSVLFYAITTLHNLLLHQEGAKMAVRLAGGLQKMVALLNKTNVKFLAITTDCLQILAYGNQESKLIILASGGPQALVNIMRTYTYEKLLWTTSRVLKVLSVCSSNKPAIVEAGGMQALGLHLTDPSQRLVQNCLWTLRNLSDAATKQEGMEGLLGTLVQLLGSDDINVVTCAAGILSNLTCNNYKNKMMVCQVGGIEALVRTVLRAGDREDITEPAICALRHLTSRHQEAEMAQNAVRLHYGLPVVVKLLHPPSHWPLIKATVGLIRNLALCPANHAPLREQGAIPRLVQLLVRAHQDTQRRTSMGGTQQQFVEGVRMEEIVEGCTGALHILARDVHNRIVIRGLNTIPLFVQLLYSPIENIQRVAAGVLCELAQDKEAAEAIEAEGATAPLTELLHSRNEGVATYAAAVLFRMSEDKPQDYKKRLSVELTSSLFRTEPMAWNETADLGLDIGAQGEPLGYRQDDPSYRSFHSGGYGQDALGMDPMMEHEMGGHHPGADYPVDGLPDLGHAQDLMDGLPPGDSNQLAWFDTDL
Description: fluorescence polarization competition; 5FAM-TCF4(10-53) probe with full-length beta-catenin. As for the experimental part: as §1

Assay [5] deals with T3, full-length beta-Catenin (Uniprot ID …). Description: Alphascreen competition; biotin-TCF4(10-53) probe with full-length beta-catenin. As for the experimental part: as §2

B1: I-260: Ac-PL3-Asp-Ala-B5-Asp-Asp-Ala-Ala-Phe-Val-S8-3FF-Trp-Gln-NH2 (peptide)
peptide: Ac-[αAllylPro]DA[B5(4)]DDAAFV[S8][Phe(3-F)]WQ-NH2
modifications: staple 1-4, 4-11
notes: Stapled peptide
As for B1, the IC50 (as a rule, the midpoint of a concentration-inhibition curve) in assay [1] was determined as 5000 nM.

B2: I-53 (peptide)
peptide: Ac-[αAllylPro]DA[B5(21)]DDAAFV[SeN″]FWQ-NH2
modifications: staple 1-4, 4-11; also: earlier-eluting HPLC isomer, E/Z not given here
notes: Stapled (stitched) peptide; also called Ac-PL3-Asp-Ala-B5-Asp-Asp-Ala-Ala-Phe-Val-SeN-Phe-Trp-Gln-NH2
As to B2, the half-maximal effective concentration (EC50) (commonly the concentration that produces a half-maximal response) came out at 5000 nM in assay [2] and 1140 nM in assay [3].

B3: I-133 (peptide)
peptide: XDAXDEAAFVXFWX
modifications: not fully specified; as printed: Ac-PL3-Asp-Ala-B5-Asp-Glu-Ala-Ala-Phe-Val-S8-Phe-Trp-Aib-NH2; staples PL3(1)-B5(4) and B5(4)-S8(11)
notes: Stitched (two-staple) peptide composition
Take B3: the response in assay [4] was half-maximal at 5000 nM (EC50). This counts as single-digit micromolar.

B4: I-123 (peptide)
peptide: Ac-[αAllylPro]DA[B5(4)]DEAAFV[S8]FWQ-NH2
modifications: staple 1-4, 4-11
notes: as for B3
For B4, the EC50 in assay [5] worked out at 444 nM; in assay [4], 2110 nM.

B5: I-127 (peptide)
peptide: Ac-[αAllylPro]DA[B5(5)]DQAAFV[S8]FWQ-NH2
modifications: staple 1-4, 4-11
notes: as for B3
As for B5, the figures for the EC50 in assay [5] and in assay [4] were 552 nM and 4840 nM, respectively.

B6: I-125 (peptide)
peptide: XDAXDNAAFVXFWQ
modifications: not fully specified; as printed: Ac-PL3-Asp-Ala-B5-Asp-Asn-Ala-Ala-Phe-Val-S8-Phe-Trp-Gln-NH2; staples PL3(1)-B5(4) and B5(4)-S8(11)
notes: as for B3
On to B6, for which the EC50 in assay [5] was 569 nM; in assay [4], 3060 nM.

B7: I-129 (peptide)
peptide: Ac-[αAllylPro]DA[B5(10)]D[Aad]AAFV[S8]FWQ-NH2
modifications: staple 1-4, 4-11
notes: as for B3
For B7, the EC50 in assay [5] turned out to be 83 nM; in assay [4], 1980 nM.

B8: I-55 (peptide)
peptide: Ac-[αAllylPro]DA[B5(4)]DDAAFV[SdN]FWQ-NH2
modifications: staple 1-4, 4-11
notes: Stapled (stitched) peptide; also called Ac-PL3-Asp-Ala-B5-Asp-Asp-Ala-Ala-Phe-Val-SdN-Phe-Trp-Gln-NH2
On to B8, for which the EC50 in assay [2] stood at 5000 nM; in assay [3], 2380 nM.

B9: I-52 (peptide)
peptide: Ac-[αAllylPro]DA[B5(20)]DDAAFV[S8]FWQ-NH2
modifications: staple 1-4, 4-11
notes: Stapled (stitched) peptide; also called Ac-PL3-Asp-Ala-B5-Asp-Asp-Ala-Ala-Phe-Val-S8-Phe-Trp-Gln-NH2
Consider B9, for which the EC50 worked out at 3200 nM in assay [2] and 158 nM in assay [3].

B10: I-219: Ac-PL3-Asp-Ala-B5-Asp-Glu-Ala-Ala-35FF-Val-S8-Phe-Trp-Gln-NH2 (peptide)
peptide: Ac-[αAllylPro]DA[B5(4)]DEAA[Phe(3,5-F2)]V[S8]FWQ-NH2
modifications: staple 1-4, 4-11
notes: Stapled (stitched) peptide
Consider B10, for which the IC50 in assay [1] came out at 2860 nM.

B11: I-64 (peptide)
peptide: Ac-ADI[RdN]DDAAFQ[S7]FWH-NH2
modifications: staple 4-11; not fully specified
notes: Stapled peptide; also called Ac-Ala-Asp-Ile-RdN-Asp-Asp-Ala-Ala-Phe-Gln-S7-Phe-Trp-His-NH2
For B11, in assay [2], a half-maximal effect (EC50) was put at 4250 nM.

B12: I-66 (peptide)
peptide: Ac-ADI[RdN]DEAAFQ[S7]FWH-NH2
modifications: staple 4-11; not fully specified
notes: Stapled peptide; also called Ac-Ala-Asp-Ile-RdN-Asp-Glu-Ala-Ala-Phe-Gln-S7-Phe-Trp-His-NH2
As for B12, the EC50 in assay [2] turned out to be 1090 nM; in assay [3], 174 nM.

B13: I-67 (peptide)
peptide: Ac-ADI[RdN]DEAAFQ[S7]FWH-NH2
modifications: staple 4-11
notes: as for B12
Turning to B13, the concentration giving a half-maximal response (EC50) in assay [2] is 1230 nM; in assay [3] it was 154 nM.
